Results from article doi:10.1101/790931, “Pal stabilises the bacterial outer membrane during constriction by a mobilisation-and-capture mechanism” (bioRxiv, 2019).
No end group written: not given here.

Target: T1, C-terminal domain of Pseudomonas aeruginosa TolA (TolA^224-347) (Pseudomonas aeruginosa, UniProt P50600 224-347)
T1 construct: TolA, Pseudomonas aeruginosa, C-terminal domain, residues 224-347; Uniformly 15N- or 13C/15N-labelled for the NMR experiments, unlabelled for fluorescence anisotropy; also called wild-type TolA (residues 224-347); C-terminal domain of TolA; not shown: His tag, N-terminal, cleaved; Im9, N-terminal, cleaved
T1 sequence (looked up): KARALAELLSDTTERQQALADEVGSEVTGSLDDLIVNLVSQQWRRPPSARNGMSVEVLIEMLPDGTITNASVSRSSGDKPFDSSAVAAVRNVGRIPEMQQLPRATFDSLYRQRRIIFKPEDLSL
Experiment: NMR titration; TolB peptide added to 0.6 mM 15N-labelled TolA; 1H,15N-HSQC; 20 mM phosphate, 100 mM NaCl, pH 7.6; slow exchange, ratio of bound and free peak volumes; fits for Ser271, Ser306, Gly316, Leu347
Settings: both partners purified

B1: P. aeruginosa TolB[22-34] peptide (the TolA box) (peptide)
peptide: ADPLVISSGNDRA-NH2
notes: TolB, Pseudomonas aeruginosa, residues 22-34, the N-terminus of secreted TolB; also called TolB[22-33]; (in supplementary legends); N-terminus of TolB; source: synthetic peptide (thinkpeptides UK (ProImmune))
- Kd: 220 µM
